Tests used:
BALB/C mice [1] = assay: Evaluation of sneezing symptom; type: in vivo
Experimental: (§1) To 23 BALB/C mice (female, 5 weeks old) (CLEA Japan, Inc., the same applies hereinafter), 50 μg of ovalbumin (manufactured by Sigma, sometimes abbreviated as “OVA” herein) dissolved and diluted with physiological saline (manufactured by Otsuka Pharmaceutical Co., Ltd.) and 1 mg of aluminum potassium sulfate (manufactured by Sigma-Aldrich Co. LLC.) were intraperitoneally administered simultaneously, and, after two weeks, 50 μg of OVA was intraperitoneally administered again for sensitization. Two weeks after the second sensitization, OVA (400 μg/10 μL) was transnasally administered once daily for 5 days (5 times, in total) or 10 days (10 times, in total) for stimulation, thereby preparing allergic rhinitis (sometimes abbreviated as “AR” herein) model mice. […]
For the AR model mice (22 mice) and solvent-administered group (10 mice) prepared in Example 1, the numbers of sneezes for a period of 10 minutes from 1 minute to 11 minutes after each of the first to tenth administrations of OVA or the solvent were counted. For the upper respiratory inflammation model mice (9 mice) and single-time solvent-administered group (6 mice) prepared in Example 1, the numbers of sneezes were counted hourly after the administration of LPS or the solvent (until 10 hours later).

[2] = test system: ovalbumin-specific IgE in serum; assay: Ovalbumin-specific IgE level in serum (ELISA); type: in vivo, BALB/C mice; settings: OVA-sensitized mice (two i.p. sensitizations, not stimulated with OVA); not detected in unsensitized group; mean±SD
Experimental: as §1
Antigen sensitization is known to increase the antigen-specific IgE value in serum. To confirm the ovalbumin sensitization of the allergic rhinitis model mice prepared in Example 1 (1), the ovalbumin-specific IgE level in serum was measured. […] The freeze-preserved serum was diluted 25 times, and then the IgE level was measured using Anti-Ovalbumin IgE (mouse) ELISA Kit (manufactured by Cayman Chemical Company) according to the instructions attached to the kit.

BALB/C mice [3] = assay: Histopathological count of immunocytes infiltrated into nasal turbinates; type: in vivo
Experimental: Specifically, the maxilla was excised from the mice and immediately immersed in 4% paraformaldehyde at 4° C. for 5 days. Then, it was immersed in EDTA every day and decalcified at 4° C. for 10 days. Next, the bone covering the orbit was excised with a razor, dehydrated and cleared, and then embedded in paraffin to prepare continuous section specimens having a width of 4 μm. Hematoxylin-eosin staining (HE staining), chloroacetate-esterase staining (CAE staining), toluidine blue staining (TB staining) or May-Grünwald Giemsa staining (MG staining) was performed according to a conventional method for encapsulation. Specific staining procedures are as will be described below. The stained nasal cavity tissue was observed under an optical microscope (ACT-10, manufactured by Nikon Corporation), and imaged using a digital microscope camera (OPTIPHOT-2, manufactured by Nikon Corporation). The number of immunocytes (connective tissue type mast cells, mucosal type mast cells, eosinophils and neutrophils) in the nasal turbinates (sites where inflammatory cells infiltrate when rhinitis occurs and where many capillaries gather) was counted within 16 to 24 randomly selected areas (magnification: ×400) per section. CAE staining is a staining method in which mast cell-specific esterase is stained red using naphthol AS-D chloroacetate as a substrate. The continuous section specimens prepared in the above item (1) were deparaffinized and used for staining. A 4% sodium nitrite solution and a new fuchsin solution were mixed at a ratio of 1:1, and then this solution and a naphthol solution were mixed at a ratio of 1:9. This solution and phosphate buffer (0.2M NaH2PO4, 0.2M Na2HPO4, pH 7.6) were mixed at a ratio of 1:20, and the sections were immersed for 10 minutes. The sections were washed with distilled water and then counterstained with a hematoxylin solution. The total number of the mast cells (connective tissue type mast cells and mucosal type mast cells) present in the connective tissue and mucosal tissue within 1 mm^2 was counted to calculate the mean value and standard deviation. TB staining stains acidic mucous polysaccharides. Acidic mucous polysaccharides are present in the connective tissue type mast cells and absent in the mucosal type mast cells. The continuous section specimens prepared in the above item (1) were deparaffinized and then immersed in a 0.05% toluidine blue solution (pH: 4.1) for 10 minutes. Then, they were decolorized with a 90% alcohol solution and then encapsulated. CAE staining stains both the connective tissue type mast cells and the mucosal type mast cells, whereas TB staining stains only the connective tissue type mast cells. CAE staining and TB staining were performed on different sections, and cells positive for CAE staining and positive for TB staining were decided as connective tissue type mast cells. Also, cells positive for CAE staining and negative for TB staining were decided as mucosal type mast cells. The total number of the connective tissue mast cells or mucosal type mast cells present in the connective tissue and mucosal tissue within 1 mm^2 was counted to calculate the mean value and standard deviation. May-Grünwald Giemsa staining stains eosinophil-specific eosinophilic granules red. The continuous section specimens prepared in the above item (1) were deparaffinized and then immersed in a May-Grünwald staining solution for 6 minutes. Then, the sections were washed with 1/15 M-phosphate buffer (×10) (0.2M NaH2PO4, 0.2M Na2HPO4, pH 6.4 to 6.8). Thereafter, the sections were immersed for 3 minutes in a solution obtained by mixing a Giemsa staining solution and distilled water at a ratio of 1:20. HE staining and MG staining were performed on different sections, and cells confirmed to have a multilobed nucleus by HE staining and positive for MG staining were decided as eosinophils. Also, cells have a multilobed nucleus by HE staining and negative for MG staining were decided as neutrophils. […]

BALB/C mice [4] = assay: Measurement of nasal cavity volume by computed tomography; type: in vivo
Experimental: To 23 BALB/C mice (female, 5 weeks old) (CLEA Japan, Inc., the same applies hereinafter), 50 μg of ovalbumin (manufactured by Sigma, sometimes abbreviated as “OVA” herein) dissolved and diluted with physiological saline (manufactured by Otsuka Pharmaceutical Co., Ltd.) and 1 mg of aluminum potassium sulfate (manufactured by Sigma-Aldrich Co. LLC.) were intraperitoneally administered simultaneously, and, after two weeks, 50 μg of OVA was intraperitoneally administered again for sensitization. […]
The nasal cavity volume of the AR model mice prepared in Example 1 was measured by computed tomography before the administration of OVA (6 mice), 24 hours after the fifth administration of OVA (6 mice), and 24 hours after the tenth administration of OVA (6 mice). As a control, the nasal cavity volume of the solvent-administered group prepared in Example 1 was measured in the same manner as above before the administration of the solvent (6 mice), 24 hours after the fifth administration of the solvent (6 mice), and 24 hours after the tenth administration of the solvent (6 mice). […] From the captured image, regions having a CT value of −900 to −300 HU (Hounsfield unit) were decided as the nasal cavities, and their volume was measured.

[5] = 10-time OVA-administered group vs 10-time solvent-administered group

B1: OVA: ovalbumin (manufactured by Sigma), antigen used for sensitization and stimulation of the allergy models (protein, UniProt P01012 2-386, looked up)
Ovalbumin: GSIGAASMEFCFDVFKELKVHHANENIFYCPIAIMSALAMVYLGAKDSTRTQINKVVRFDKLPGFGDSIEAQCGTSVNVHSSLRDILNQITKPNDVYSFSLASRLYAEERYPILPEYLQCVKELYRGGLEPINFQTAADQARELINSWVESQTNGIIRNVLQPSSVDSQTAMVLVNAIVFKGLWEKAFKDEDTQAMPFRVTEQESKPVQMMYQIGLFRVASMASEKMKILELPFASGTMSMLVLLPDEVSGLEQLESIINFEKLTEWTSSNVMEERKIKVYLPRMKMEEKYNLTSVLMAMGITDVFSSSANLSGISSAESLKISQAVHAAHAEINEAGREVVGSAEAGVDAASVSEEFRADHPFLFCIKHIATNAVLFFGRCVSP
With B1 the frequency of sneezing (BALB/C mice [1]; allergic rhinitis model mice, from the first transnasal administration of OVA) was “observed to increase”, the “number of sneezes for 10 minutes after administration” value (BALB/C mice [1]; fifth administration of OVA, compared with solvent-administered group, maintained until tenth administration) was “significantly increased” and the “serum ovalbumin-specific IgE” value [2] was 23 ± 6.29 ng/mL. The “number of eosinophils infiltrated into the nasal turbinates” value (BALB/C mice [3]; 5-time OVA-administered group vs 10-time solvent-administered group) was “significant increase”, the “number of infiltrated eosinophils” value (BALB/C mice [3]; 5-time OVA-administered group vs LPS-administered group) was “significantly increased” and the “number of mucosal type mast cells infiltrated into the nasal turbinates” value (BALB/C mice [3]; 5-time OVA-administered group, solvent-administered groups and LPS-administered group compared) was “no significant difference”. The “number of infiltrated eosinophils” value (BALB/C mice [3]; 10-time OVA-administered group vs 5-time OVA-administered group) was “significantly increased”, the “number of eosinophils infiltrated into the nasal turbinates” value (BALB/C mice [3]; [5]) was “significant increase” and the “number of mucosal type mast cells infiltrated into the nasal turbinates” value (BALB/C mice [3]; [5]) was “significant increase”. For the same molecule, the “number of neutrophils infiltrated into the nasal turbinate” value (BALB/C mice [3]; OVA-administered groups (5 and 10 times) and solvent-administered groups) was “no significant difference”, the “number of connective tissue type mast cells infiltrated into the nasal turbinates” value (BALB/C mice [3]; OVA-administered groups (5 and 10 times), solvent-administered groups and LPS-administered group compared) was “no significant difference” and the nasal cavity volume (BALB/C mice [4]; 5-time OVA-administered group, 24 hours after fifth administration) was “decreased”. For the same molecule, the nasal cavity volume (BALB/C mice [4]; 10-time OVA-administered group, compared with before the administration of OVA) was “significantly decreased”.

— patent publication US20220057415A1, “METHOD FOR DETECTING ALLERGIC DISEASES” (The University of Tokyo, priority 2018, published 2022)
